In patent US20130123462A1 (INDIANA UNIVERSITY RESEARCH AND TECHNOLOGY, published 2013):
Bridges are numbered along the chain shown (N, C = ends). Where no end group is shown, it is not given here. [ ]: non-standard residue; d: D form. PhLac = O=C(O)[C@@H](O)Cc1ccccc1

B1: [PLA6, D9, E16, K20E24(Lactam), D28]G(6-29) (peptide)
peptide: [PhLac]TSDYSKYLDERRAKDFVEWLMDT-NH2
modifications: lactam 15-19; N-terminus assumed
SMILES: CSCC[C@H](NC(=O)[C@H](CC(C)C)NC(=O)[C@H](Cc1c[nH]c2ccccc12)NC(=O)[C@@H]1CCC(=O)NCCCC[C@H](NC(=O)[C@H](C)NC(=O)[C@H](CCCNC(=N)N)NC(=O)[C@H](CCCNC(=N)N)NC(=O)[C@H](CCC(=O)O)NC(=O)[C@H](CC(=O)O)NC(=O)[C@H](CC(C)C)NC(=O)[C@H](Cc2ccc(O)cc2)NC(=O)[C@H](CCCCN)NC(=O)[C@H](CO)NC(=O)[C@H](Cc2ccc(O)cc2)NC(=O)[C@H](CC(=O)O)NC(=O)[C@H](CO)NC(=O)[C@@H](NC(=O)[C@@H](O)Cc2ccccc2)[C@@H](C)O)C(=O)N[C@@H](CC(=O)O)C(=O)N[C@@H](Cc2ccccc2)C(=O)N[C@@H](C(C)C)C(=O)N1)C(=O)N[C@@H](CC(=O)O)C(=O)N[C@H](C(N)=O)[C@@H](C)O
B2: [A2E3, E16K20(Lactam), D28]G(1~29) (peptide)
peptide: HAEGTFTSEYSKYLDERRAKDFVQWLMDT-NH2
modifications: lactam 16-20; N-terminus assumed
SMILES: CSCC[C@H](NC(=O)[C@H](CC(C)C)NC(=O)[C@H](Cc1c[nH]c2ccccc12)NC(=O)[C@H](CCC(N)=O)NC(=O)[C@@H](NC(=O)[C@H](Cc1ccccc1)NC(=O)[C@H](CC(=O)O)NC(=O)[C@@H]1CCCCNC(=O)CC[C@H](NC(=O)[C@H](CC(=O)O)NC(=O)[C@H](CC(C)C)NC(=O)[C@H](Cc2ccc(O)cc2)NC(=O)[C@H](CCCCN)NC(=O)[C@H](CO)NC(=O)[C@H](Cc2ccc(O)cc2)NC(=O)[C@H](CCC(=O)O)NC(=O)[C@H](CO)NC(=O)[C@@H](NC(=O)[C@H](Cc2ccccc2)NC(=O)[C@@H](NC(=O)CNC(=O)[C@H](CCC(=O)O)NC(=O)[C@H](C)NC(=O)[C@@H](N)Cc2c[nH]cn2)[C@@H](C)O)[C@@H](C)O)C(=O)N[C@@H](CCCNC(=N)N)C(=O)N[C@@H](CCCNC(=N)N)C(=O)N[C@@H](C)C(=O)N1)C(C)C)C(=O)N[C@@H](CC(=O)O)C(=O)N[C@H](C(N)=O)[C@@H](C)O
B3: [E9, E16K20(lactam), D28]G(4~29) (peptide)
peptide: GTFTSEYSKYLDERRAKDFVQWLMDT-NH2
modifications: lactam 13-17; N-terminus assumed
SMILES: CSCC[C@H](NC(=O)[C@H](CC(C)C)NC(=O)[C@H](Cc1c[nH]c2ccccc12)NC(=O)[C@H](CCC(N)=O)NC(=O)[C@@H](NC(=O)[C@H](Cc1ccccc1)NC(=O)[C@H](CC(=O)O)NC(=O)[C@@H]1CCCCNC(=O)CC[C@H](NC(=O)[C@H](CC(=O)O)NC(=O)[C@H](CC(C)C)NC(=O)[C@H](Cc2ccc(O)cc2)NC(=O)[C@H](CCCCN)NC(=O)[C@H](CO)NC(=O)[C@H](Cc2ccc(O)cc2)NC(=O)[C@H](CCC(=O)O)NC(=O)[C@H](CO)NC(=O)[C@@H](NC(=O)[C@H](Cc2ccccc2)NC(=O)[C@@H](NC(=O)CN)[C@@H](C)O)[C@@H](C)O)C(=O)N[C@@H](CCCNC(=N)N)C(=O)N[C@@H](CCCNC(=N)N)C(=O)N[C@@H](C)C(=O)N1)C(C)C)C(=O)N[C@@H](CC(=O)O)C(=O)N[C@H](C(N)=O)[C@@H](C)O
B4: [PLA6, D9, K12E16(Lactam), D28]G(6-29) (peptide)
peptide: [PhLac]TSDYSKYLDERRAQDFVQWLMDT-NH2
modifications: lactam 7-11; N-terminus assumed
SMILES: CSCC[C@H](NC(=O)[C@H](CC(C)C)NC(=O)[C@H](Cc1c[nH]c2ccccc12)NC(=O)[C@H](CCC(N)=O)NC(=O)[C@@H](NC(=O)[C@H](Cc1ccccc1)NC(=O)[C@H](CC(=O)O)NC(=O)[C@H](CCC(N)=O)NC(=O)[C@H](C)NC(=O)[C@H](CCCNC(=N)N)NC(=O)[C@H](CCCNC(=N)N)NC(=O)[C@@H]1CCC(=O)NCCCC[C@H](NC(=O)[C@H](CO)NC(=O)[C@H](Cc2ccc(O)cc2)NC(=O)[C@H](CC(=O)O)NC(=O)[C@H](CO)NC(=O)[C@@H](NC(=O)[C@@H](O)Cc2ccccc2)[C@@H](C)O)C(=O)N[C@@H](Cc2ccc(O)cc2)C(=O)N[C@@H](CC(C)C)C(=O)N[C@@H](CC(=O)O)C(=O)N1)C(C)C)C(=O)N[C@@H](CC(=O)O)C(=O)N[C@H](C(N)=O)[C@@H](C)O
B5: [PLA6, D9, E16, E24K28(lactam)]G(6~29) (peptide)
peptide: [PhLac]TSDYSKYLDERRAQDFVEWLMKT-NH2
modifications: lactam 19-23; N-terminus assumed
SMILES: CSCC[C@@H]1NC(=O)[C@H](CC(C)C)NC(=O)[C@H](Cc2c[nH]c3ccccc23)NC(=O)[C@@H](NC(=O)[C@@H](NC(=O)[C@H](Cc2ccccc2)NC(=O)[C@H](CC(=O)O)NC(=O)[C@H](CCC(N)=O)NC(=O)[C@H](C)NC(=O)[C@H](CCCNC(=N)N)NC(=O)[C@H](CCCNC(=N)N)NC(=O)[C@H](CCC(=O)O)NC(=O)[C@H](CC(=O)O)NC(=O)[C@H](CC(C)C)NC(=O)[C@H](Cc2ccc(O)cc2)NC(=O)[C@H](CCCCN)NC(=O)[C@H](CO)NC(=O)[C@H](Cc2ccc(O)cc2)NC(=O)[C@H](CC(=O)O)NC(=O)[C@H](CO)NC(=O)[C@@H](NC(=O)[C@@H](O)Cc2ccccc2)[C@@H](C)O)C(C)C)CCC(=O)NCCCC[C@@H](C(=O)N[C@H](C(N)=O)[C@@H](C)O)NC1=O

Target: T1, GLP-1 receptor (UniProt P43220 24-463, limits assumed)
Assay: cell-based or functional assay
Target sequence in this assay (P43220 24-463 limits assumed): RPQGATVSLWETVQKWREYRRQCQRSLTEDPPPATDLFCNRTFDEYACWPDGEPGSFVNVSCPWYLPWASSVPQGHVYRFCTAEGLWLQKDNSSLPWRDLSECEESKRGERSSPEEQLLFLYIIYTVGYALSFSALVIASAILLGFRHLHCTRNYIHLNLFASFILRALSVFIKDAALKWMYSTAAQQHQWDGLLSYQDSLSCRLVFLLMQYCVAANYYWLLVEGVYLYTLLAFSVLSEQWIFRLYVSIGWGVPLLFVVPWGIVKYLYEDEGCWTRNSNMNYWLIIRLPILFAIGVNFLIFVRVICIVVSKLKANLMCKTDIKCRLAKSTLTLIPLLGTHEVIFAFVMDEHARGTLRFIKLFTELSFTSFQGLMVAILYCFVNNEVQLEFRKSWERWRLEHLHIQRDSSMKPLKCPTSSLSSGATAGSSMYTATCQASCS

First: FTSDYSKYLDERRAQDFVQWLMNTGPSSGAPPPS (lactam 7-11; not fully specified) [D9, K12E16(Lactam) Cex glucagon(6-39) (Table 13, peptide 4)]
Second: FTSEYSKYLDERRAKDFVQWLMNTGPSSGAPPPS (lactam 11-15) [E9, E16K20(lactam) Cex glucagon(6-39) (Table 13, peptide 3)]
The “GLP-1 EC50” value of the first is 3.3-fold higher: 119 nM for the first, 36 nM for the second.

Going from FTSEYSKYLDERRAQDFVQWLMNTGPSSGAPPPS (lactam 7-11) [E9, K12E16(lactam) Cex glucagon(6-39) (Table 13, peptide 2)] to [PhLac]TSEYSKYLDERRAQDFVQWLMNTGPSSGAPPPS (lactam 7-11; not fully specified) [[PLA6, E9, K12E16(Lactam)] Cex glucagon(6-39) (Table 13, peptide 5)], the “GLP-1 EC50” value falls from 63 nM to 6 nM (10-fold).

Target: T2, glucagon receptor (UniProt P47871 26-477, limits assumed)
Assay: cell-based or functional assay

T2 sequence (P47871 26-477 limits assumed): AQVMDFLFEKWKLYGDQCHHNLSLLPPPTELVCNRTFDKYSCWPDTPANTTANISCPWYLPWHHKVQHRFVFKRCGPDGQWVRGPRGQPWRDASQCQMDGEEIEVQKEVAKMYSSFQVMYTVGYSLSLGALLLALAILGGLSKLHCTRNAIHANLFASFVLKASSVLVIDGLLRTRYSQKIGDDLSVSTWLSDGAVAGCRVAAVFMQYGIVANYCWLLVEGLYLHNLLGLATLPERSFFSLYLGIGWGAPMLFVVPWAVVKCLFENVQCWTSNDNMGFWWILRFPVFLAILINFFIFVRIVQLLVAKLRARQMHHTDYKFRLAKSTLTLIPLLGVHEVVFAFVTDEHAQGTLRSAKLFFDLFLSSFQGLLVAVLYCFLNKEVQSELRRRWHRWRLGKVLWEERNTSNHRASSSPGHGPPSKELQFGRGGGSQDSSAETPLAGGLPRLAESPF

FTSDYSKYLDERRAQDFVQWLMNTGPSSGAPPPS (lactam 7-11; not fully specified) [D9, K12E16(Lactam) Cex glucagon(6-39) (Table 13, peptide 4)] and FTSEYSKYLDERRAQDFVQWLMNTGPSSGAPPPS [E9, K12, E16 Cex glucagon(6-39) (Table 13, peptide 1)] are within 1.5-fold of each other in “Glu IC50” value: 828 nM for the first, 762 nM for the second.

First: FTSEYSKYLDERRAKDFVQWLMNTGPSSGAPPPS (lactam 11-15) [E9, E16K20(lactam) Cex glucagon(6-39) (Table 13, peptide 3)]
Second: FTSEYSKYLDERRAQDFVQWLMNTGPSSGAPPPS (lactam 7-11) [E9, K12E16(lactam) Cex glucagon(6-39) (Table 13, peptide 2)]
The “Glu IC50” value of the first is 48-fold lower: 42 nM for the first, 2010 nM for the second.

In the case of [PhLac]TSEYSKYLDERRAQDFVQWLMNTGPSSGAPPPS (lactam 7-11; not fully specified) [[PLA6, E9, K12E16(Lactam)] Cex glucagon(6-39) (Table 13, peptide 5)], the “Glu IC50” value is reported as 72 nM.

Target: T1, GLP-1 receptor
Assay: cell-based or functional assay
Remark: another data set of the same source

Compared with B1, HSQGTFTSDYARYLDARRAREFIKWLVRGRG [ANK2 (Bayer peptide)] is 850-fold lower in “GLP-1 EC50” value: 239 nM for the first, 0.28 nM for the second.

Going from B2 to B3, the “GLP-1 EC50” value rises from 0.2 nM to 151 nM (760-fold).

First: B4
Second: B5
The “GLP-1 EC50” value of the first is 1.6-fold lower: 177 nM for the first, 289 nM for the second.

Target: T2, glucagon receptor
Assay: cell-based or functional assay
Remark: another data set of the same source

First: B1
Second: [PhLac]TSDYSKYLDERRAKDFVQWLMDT-NH2 (lactam 11-15) [[PLA6, D9, E16K20(lactam), D28]G(6-29)]
The “Glucagon IC50” value of the first is higher: 74 nM for the first, 10 to 30 nM for the second.

Compared with AEGTFTSEYSKYLDERRAKDFVQWLMDT-NH2 (lactam 15-19) [[A2E3, E16K20(Lactam), D28]G(2~29)], B3 is lower in “Glucagon IC50” value: 63 nM for the first, 10 to 30 nM for the second.

Compared with B4, B5 is 2.9-fold lower in “Glucagon IC50” value: 63 nM for the first, 22 nM for the second.

For B2, the “Glucagon IC50 (PA = partial antagonist)” value was 130 nM.

Target: T1, GLP-1 receptor
Assay: cell-based or functional assay
Remark: another data set of the same source

FTSDYSKYLDERRAQDFVQWLMNTGPSSGAPPPS (lactam 7-11; not fully specified) [D9, K12E16(Lactam) Cex glucagon(6-39) (Table 13, peptide 4)] was tested, and the “GLP-1 EC50 (column without a head in this part of Table 15)” value was 18 nM.

Compared with [PhLac]TSDYSKYLDERRAKDFVQWLMDT-NH2 (lactam 11-15) [[PLA6, D9, E16K20(lactam), D28]G(6-29)], FTSDYSKYLDSRRAQDFVQWLMDT (first residue is phenyl lactic acid (PLA)) [PLA 6, D9, D28 glucagon D9(6-29) analog (Table 15, peptide 7)] is 180-fold higher in “GLP-1 EC50” value: 4 nM for the first, about 700 nM for the second.

B4 was tested, and the “GLP-1 EC50” value was 21 nM.

Target: T2, glucagon receptor
Assay: cell-based or functional assay
Remark: another data set of the same source

Compared with [PhLac]TSDYSKYLDERRAKDFVQWLMDT-NH2 (lactam 11-15) [[PLA6, D9, E16K20(lactam), D28]G(6-29)], B4 is 2.2-fold higher in “Glucagon IC50” value: 6 nM for the first, 13 nM for the second.
